The target of test [1] is Fc-IL6Ralpha-IL6 (human IL-6Ralpha and IL-6; mouse Fc). Kind of test: cell-based or functional assay.
Test [2] has as its target human IL-6 (human) (UniProt P05231). In words: cell-based or functional assay.

Sequence of Fc-IL6Ralpha-IL6 (human IL-6Ralpha and IL-6; mouse Fc) (chain, as listed by the source limits assumed): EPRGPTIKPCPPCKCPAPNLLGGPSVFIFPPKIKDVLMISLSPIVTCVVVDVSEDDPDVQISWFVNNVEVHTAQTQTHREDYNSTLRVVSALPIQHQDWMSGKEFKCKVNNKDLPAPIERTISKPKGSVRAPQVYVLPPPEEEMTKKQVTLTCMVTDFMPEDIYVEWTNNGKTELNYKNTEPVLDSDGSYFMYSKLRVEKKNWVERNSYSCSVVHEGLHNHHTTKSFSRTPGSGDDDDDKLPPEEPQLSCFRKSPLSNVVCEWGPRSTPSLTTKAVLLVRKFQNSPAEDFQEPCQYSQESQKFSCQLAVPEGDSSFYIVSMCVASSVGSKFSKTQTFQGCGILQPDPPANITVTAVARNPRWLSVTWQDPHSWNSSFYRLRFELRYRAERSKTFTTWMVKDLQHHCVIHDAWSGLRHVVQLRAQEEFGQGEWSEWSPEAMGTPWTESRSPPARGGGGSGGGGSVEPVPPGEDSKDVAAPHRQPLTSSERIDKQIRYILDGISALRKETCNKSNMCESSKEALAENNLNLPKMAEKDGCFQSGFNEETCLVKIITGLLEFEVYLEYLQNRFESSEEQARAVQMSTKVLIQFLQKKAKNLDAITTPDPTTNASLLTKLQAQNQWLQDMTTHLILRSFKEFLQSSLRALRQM
Sequence of human IL-6 (human) (P05231 30-212 limits assumed): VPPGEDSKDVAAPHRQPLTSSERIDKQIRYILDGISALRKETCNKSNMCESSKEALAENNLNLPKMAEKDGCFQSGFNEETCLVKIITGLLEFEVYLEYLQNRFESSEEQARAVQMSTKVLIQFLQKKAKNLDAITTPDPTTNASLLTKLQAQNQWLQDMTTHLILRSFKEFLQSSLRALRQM

B1: CNTO-328 (antibody, INN chains, looked up, V domains shown)
VH: EVQLVESGGKLLKPGGSLKLSCAASGFTFSSFAMSWFRQSPEKRLEWVAEISSGGSYTYYPDTVTGRFTISRDNAKNTLYLEMSSLRSEDTAMYYCARGLWGYYALDYWGQGTSVTVSS
VL: QIVLIQSPAIMSASPGEKVTMTCSASSSVSYMYWYQQKPGSSPRLLIYDTSNLASGVPVRFSGSGSGTSYSLTISRMEAEDAATYYCQQWSGYPYTFGGGTKLEIK
Turning to B1, in test [1], the 8 Hours % Inhibition of haptoglobin secretion in mice given Fc-IL6Rα-IL6 was 12%, the 24 hours % Inhibition of haptoglobin secretion in mice given Fc-IL6Rα-IL6 is -3%, the Haptoglobin Inhibition IC50 (HepG2 cells stimulated with IL-6Rα-IL-6) was above 0.333 µg/mL and the LP-1 Proliferation IC50 (stimulated with Fc-IL6Ralpha-IL6) is 1.61 µg/mL. In test [2], this molecule displayed a Haptoglobin Inhibition IC50 (HepG2 cells stimulated with IL-6) of 0.00519 µg/mL and an LP-1 Proliferation IC50 (stimulated with IL-6) of 0.0101 µg/mL.

These data come from patent US20070178098A1.
